Experimental data taken from patent US20260241018A1 (BIOCYTOGEN PHARMACEUTICALS BEIJING, published 2026).

T1: dog 5T4 expressed on CHO-S cells (CHO-d5T4 cells) (dog)
T1 chain: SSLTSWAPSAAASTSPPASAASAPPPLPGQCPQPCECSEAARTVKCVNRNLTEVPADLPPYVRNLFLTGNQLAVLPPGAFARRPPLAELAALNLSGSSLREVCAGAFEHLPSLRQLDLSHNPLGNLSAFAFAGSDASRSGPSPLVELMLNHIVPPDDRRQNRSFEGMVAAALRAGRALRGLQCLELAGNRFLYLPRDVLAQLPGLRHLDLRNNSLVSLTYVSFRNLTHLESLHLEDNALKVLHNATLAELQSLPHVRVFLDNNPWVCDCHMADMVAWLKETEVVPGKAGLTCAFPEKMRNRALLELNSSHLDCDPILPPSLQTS

T2: human 5T4 expressed on CHO-S cells (CHO-h5T4 cells) (human, UniProt Q13641 32-355)
T2 sequence: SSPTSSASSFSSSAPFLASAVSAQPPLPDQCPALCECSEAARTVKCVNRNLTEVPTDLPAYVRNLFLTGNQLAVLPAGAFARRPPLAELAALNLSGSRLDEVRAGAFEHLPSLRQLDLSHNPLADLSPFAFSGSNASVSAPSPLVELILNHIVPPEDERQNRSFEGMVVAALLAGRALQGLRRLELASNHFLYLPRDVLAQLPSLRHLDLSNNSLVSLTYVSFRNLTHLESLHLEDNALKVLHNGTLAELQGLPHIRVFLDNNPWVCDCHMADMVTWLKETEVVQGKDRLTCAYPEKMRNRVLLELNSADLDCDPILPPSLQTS

T3: mouse 5T4 expressed on CHO-S cells (CHO-m5T4 cells) (mouse, UniProt Q9Z0L0 32-361)
T3 sequence: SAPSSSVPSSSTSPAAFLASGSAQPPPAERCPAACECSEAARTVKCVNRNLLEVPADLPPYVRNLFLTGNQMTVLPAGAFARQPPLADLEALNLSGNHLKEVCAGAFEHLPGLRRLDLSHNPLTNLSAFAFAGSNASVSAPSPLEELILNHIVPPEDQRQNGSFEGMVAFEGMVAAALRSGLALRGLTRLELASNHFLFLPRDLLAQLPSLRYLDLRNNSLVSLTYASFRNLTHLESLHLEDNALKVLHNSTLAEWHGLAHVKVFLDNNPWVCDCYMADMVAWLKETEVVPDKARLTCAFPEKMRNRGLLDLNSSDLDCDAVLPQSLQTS

T4: monkey (Macaca fascicularis) 5T4 expressed on CHO-S cells (CHO-fas5T4 cells) (monkey (Macaca fascicularis), UniProt Q4R8Y9 35-355)
T4 construct: also called monkey 5T4
T4 sequence: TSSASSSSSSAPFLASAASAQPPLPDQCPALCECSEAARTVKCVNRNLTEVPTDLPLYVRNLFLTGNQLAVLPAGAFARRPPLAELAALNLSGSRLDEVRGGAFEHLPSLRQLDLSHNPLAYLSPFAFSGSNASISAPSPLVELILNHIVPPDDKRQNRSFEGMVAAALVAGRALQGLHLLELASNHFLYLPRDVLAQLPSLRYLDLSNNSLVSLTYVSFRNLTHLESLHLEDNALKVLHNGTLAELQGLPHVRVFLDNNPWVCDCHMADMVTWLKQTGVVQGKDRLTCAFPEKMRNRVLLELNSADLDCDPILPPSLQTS

T5: His-tagged 5T4 protein of human (h5T4, ACRO Biosystems Inc., Cat #: TPG-H52E5) (human, UniProt Q13641 32-355)
T5 construct: Bought protein; not shown: His tag
T5 sequence (looked up): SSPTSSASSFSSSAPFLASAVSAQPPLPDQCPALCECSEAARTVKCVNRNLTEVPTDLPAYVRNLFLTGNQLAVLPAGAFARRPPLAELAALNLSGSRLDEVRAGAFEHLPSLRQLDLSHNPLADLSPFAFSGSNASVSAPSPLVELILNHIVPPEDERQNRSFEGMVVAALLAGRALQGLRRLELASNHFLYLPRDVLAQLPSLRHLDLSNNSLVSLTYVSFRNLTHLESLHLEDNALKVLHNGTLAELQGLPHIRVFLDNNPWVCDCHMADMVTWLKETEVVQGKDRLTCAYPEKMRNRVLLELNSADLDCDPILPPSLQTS

T6: His-tagged 5T4 protein of monkey (fas5T4, ACRO Biosystems Inc., Cat #: TPG-C52H3) (monkey, UniProt Q4R8Y9 35-355)
T6 construct: Bought protein
T6 sequence: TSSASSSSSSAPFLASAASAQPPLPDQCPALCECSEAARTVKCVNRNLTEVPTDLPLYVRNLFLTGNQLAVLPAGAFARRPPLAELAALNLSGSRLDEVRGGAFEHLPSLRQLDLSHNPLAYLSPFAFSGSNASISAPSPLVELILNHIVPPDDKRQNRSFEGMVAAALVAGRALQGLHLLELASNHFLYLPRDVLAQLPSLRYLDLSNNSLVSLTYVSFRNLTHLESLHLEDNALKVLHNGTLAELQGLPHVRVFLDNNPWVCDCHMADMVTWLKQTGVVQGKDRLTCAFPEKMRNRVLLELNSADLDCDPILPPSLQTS

T7: His-tagged 5T4 protein of mouse (m5T4, ACRO Biosystems Inc., Cat #: TPG-M52H3) (mouse, UniProt Q9Z0L0 32-361, limits assumed)
T7 construct: Bought protein; not shown: His tag
T7 sequence (looked up): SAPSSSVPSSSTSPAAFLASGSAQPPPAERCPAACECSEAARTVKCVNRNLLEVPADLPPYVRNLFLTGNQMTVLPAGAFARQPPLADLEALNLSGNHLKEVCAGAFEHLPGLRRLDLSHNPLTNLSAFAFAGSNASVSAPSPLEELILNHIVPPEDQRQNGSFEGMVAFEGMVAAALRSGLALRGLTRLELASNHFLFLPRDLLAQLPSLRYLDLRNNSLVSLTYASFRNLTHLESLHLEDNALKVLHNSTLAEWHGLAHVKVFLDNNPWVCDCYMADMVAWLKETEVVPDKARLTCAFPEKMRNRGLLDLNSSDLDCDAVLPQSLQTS

T8: h5T4-His protein (human, UniProt Q13641 32-355, limits assumed)
T8 construct: also called His-tagged human 5T4 protein; not shown: His tag
T8 sequence (looked up): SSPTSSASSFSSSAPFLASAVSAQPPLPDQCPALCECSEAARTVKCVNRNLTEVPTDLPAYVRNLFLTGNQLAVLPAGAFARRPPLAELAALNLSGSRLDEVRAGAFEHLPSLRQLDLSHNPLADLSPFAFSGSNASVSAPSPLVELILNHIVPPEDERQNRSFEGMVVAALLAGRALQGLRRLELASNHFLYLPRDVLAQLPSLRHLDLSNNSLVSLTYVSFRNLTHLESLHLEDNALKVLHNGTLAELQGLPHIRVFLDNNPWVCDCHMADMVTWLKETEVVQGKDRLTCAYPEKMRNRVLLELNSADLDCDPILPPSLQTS


Experiments:
[1] = target: T1, dog 5T4 expressed on CHO-S cells …; assay: flow cytometry, CHO-d5T4 cells
Procedure: (§1) CHO-h5T4 cells, CHO-m5T4 cells, CHO-fas5T4 cells or CHO-d5T4 cells were transferred to a 96-well plate at a density of 2×10⁵ cells/well respectively. The anti-5T4 antibodies were added to the 96-well plate, and incubated at 4° C. for 30 min. Then, the cells were incubated with the secondary antibody anti-hlgG-Fc-Alex Flour 647 (RL1-H) (Jackson ImmunoResearch Laboratories, Inc., Cat #: 109-606-170) at 4° C. in the dark for 15 minutes before flow cytometry analysis.

[2] = target: T2, human 5T4 expressed on CHO-S cells …; assay: flow cytometry, CHO-h5T4 cells
Procedure: as §1

[3] = target: T3, mouse 5T4 expressed on CHO-S cells …; assay: flow cytometry, CHO-m5T4 cells
Procedure: as §1

[4] = target: T4, monkey (Macaca fascicularis) 5T4 …; assay: flow cytometry, CHO-fas5T4 cells
Procedure: as §1

[5] = target: T5, His-tagged 5T4 protein of human (h5T4, …); assay: SPR (Biacore 8K), antibody captured on Protein A chip, His-tagged 5T4 as analyte
Procedure: (§2) Purified anti-5T4 antibodies were diluted to 2 μg/mL and then injected into the Biacore™ 8K biosensor at 10 μL/min for about 50 seconds to achieve a desired protein density (e.g., about 50 response units (RU)). His-tagged 5T4 protein at a concentration of 200 nM was then injected at 30 μL/min for 180 seconds. Dissociation was monitored for 400 seconds. The chip was regenerated after the last injection of each titration with Glycine (pH 2.0), 30 μL/min for 30 seconds. For ISO control, an antibody targeting an irrelevant target protein was used.
(§3) As a person of ordinary skill in the art would understand, the same method with appropriate adjustments for parameters (e.g., antibody concentration) was performed for each tested antibody.

[6] = target: T6, His-tagged 5T4 protein of monkey …; assay: as above
Procedure: as §2, §3

[7] = target: T7, His-tagged 5T4 protein of mouse (m5T4, …); assay: as above
Procedure: as §2, §3

h5T4-His protein [8] = target: T8, h5T4-His protein; assay: epitope binding assay, h5T4-His captured; binder = analyte 2; competitor (analyte 1): 31G4
Procedure: (§4) Epitope binding assays were performed using ForteBio Octet system to determine whether two anti-5T4 antibodies target the same or overlapping epitopes. 1×HBS-EP+buffer (10 mM 4-(2-hydroxyethyl)-1-piperazineethanesulfonic acid (HEPES), 150 mM NaCl, 3 mM ethylenediaminetetraacetic acid (EDTA) and 0.05% P20, pH7.4) diluted from HBS-EP+buffer (10×) was used as the running buffer throughout the experiment. About 50 RU of h5T4-His protein was captured at a flow rate of 10 μL/min, and 200 nM of the tested antibody was injected at a flow rate of 30 μL/min to bind the ligand. Another comparison antibody was injected under the same conditions to determine whether the binding of different antibodies interfered with each other. The binding time was 180 s for each antibody.
(§5) The binding value of each antibody was obtained using Data Analysis HT 12.0. To quantify the interference of one antibody binding to another, a binding ratio was calculated to compare each pair of antibodies. The binding ratio is defined as the binding value of the second antibody (analyte 2), divided by the binding value of the first antibody (analyte 1). […] In general, antibody pairs that interfere with each other have the same or overlapping epitopes.

h5T4-His protein [9] = target: T8, h5T4-His protein; assay: epitope binding assay, h5T4-His captured; binder = analyte 2; competitor (analyte 1): 32E3
Procedure: as §4, §5

h5T4-His protein [10] = target: T8, h5T4-His protein; assay: epitope binding assay, h5T4-His captured; binder = analyte 2; competitor (analyte 1): 32G1
Procedure: as §4, §5

h5T4-His protein [11] = target: T8, h5T4-His protein; assay: epitope binding assay, h5T4-His captured; binder = analyte 2; competitor (analyte 1): 32G8
Procedure: as §4, §5

h5T4-His protein [12] = target: T8, h5T4-His protein; assay: epitope binding assay, h5T4-His captured; binder = analyte 2; competitor (analyte 1): 35C6
Procedure: as §4, §5

h5T4-His protein [13] = target: T8, h5T4-His protein; assay: epitope binding assay, h5T4-His captured; binder = analyte 2; competitor (analyte 1): 35B12
Procedure: as §4, §5

Row | Percentage of Positive Cells [1] [%] | Percentage of Positive Cells [2] [%] | Percentage of Positive Cells [3] [%] | Percentage of Positive Cells [4] [%] | Kd [5] [nM] | koff [5] [s⁻¹] | kon [5] [M⁻¹ s⁻¹] | Kd [6] [nM] | koff [6] [s⁻¹] | kon [6] [M⁻¹ s⁻¹] | binding ratio (h5T4-His protein [8]) | binding ratio (h5T4-His protein [9]) | binding ratio (h5T4-His protein [10]) | binding ratio (h5T4-His protein [11]) | binding ratio (h5T4-His protein [12]) | binding ratio (h5T4-His protein [13]) | Binder | other results
1 | 62.8 | 61.5 | 0.7 | 52.6 | 42.7 | 0.00529 | 124000 | 146 | 0.0143 | 98000 | 0.85 | 0.04 | 1.01 | 0.11 | 1.01 | 0.96 | 32G8 (antibody, V domains shown, also called anti-5T4 antibody 32G8) VH: QVQLQESGPGLLQPSETLSLTCFVSGASINSSGHYWGWIRQPPGKGLEWIGSIYFSGNTNYNPSLKSRVTIAVDTSKNQFSLKLSSVTAADTAVYYCVRRNGRYCSTISCYDDYWGQGTLVTVSS VL: not shown | binding result [3]: no binding; binding result [7]: no binding (tested: 200 nM)
2 | 53.7 | 65.8 | 52.2 | 51.5 | 147 | 0.00661 | 44900 | 116 | 0.00297 | 25600 | 0.8 | -0.01 | 0.83 | -0.06 | 0.96 | 0.97 | 32E3 (antibody, V domains shown, also called anti-5T4 antibody 32E3) VH: QVQLVQSGGGLVQPGGSLRLSCVVSGFTVSSDYMSWVRQAPGKGLEWVSIIYSGGSTFYADSVKGRFTISRDNSKNTLFLQMNSLRAEDTAVYYCARDRDCHGWGSYYNRWFDPWGQGTLVTVSS VL: not shown | –
3 | 76 | 78 | 54.1 | 52.1 | 122 | 0.0215 | 176000 | 198 | 0.0219 | 111000 | 0.87 | 0.97 | 0.05 | 0.91 | 0.04 | 0 | 35B12 (antibody, V domains shown, also called anti-5T4 antibody 35B12) VH: QVQLQESGPRLVKPSETLSLTCTVSGGSISSNDWSWIRQPPGKGLEWIGEISYSGITNYNPSLKSRVSISVETSKNHFSLNLSSVTAADTAVYYCATAGGSSGWYDYWFDPWGQGTLVTVSS VL: not shown | Kd [7]: 72.2 nM; koff [7]: 0.00366 s⁻¹; kon [7]: 50700 M⁻¹ s⁻¹
